Source: publication PMC7617285, “Dehydrogenase versus oxidase function: the interplay between substrate binding and flavin microenvironment” (ACS catalysis, 2025)

Columns and labels:
Experiment in all cases: purified protein
[1] = substrate: COc1cc(CO)ccc1O; type: biochemical, Rhodococcus jostii; settings: molecular oxygen as acceptor, 25 °C, 50 mM potassium phosphate pH 7.5, 150 mM NaCl
[2] = substrate: COc1cc(CO)ccc1O; type: biochemical, Hyphococcus luteus; settings: 100 μM DCPIP as acceptor, 25 °C, 50 mM potassium phosphate pH 7.5, 150 mM NaCl
[3] = substrate: OCc1ccc(O)cc1; type: biochemical, Hyphococcus luteus; settings: 100 μM DCPIP as acceptor, 25 °C, 50 mM potassium phosphate pH 7.5, 150 mM NaCl
[4] = substrate: COCc1ccc(O)cc1; type: biochemical, Hyphococcus luteus; settings: 100 μM DCPIP as acceptor, 25 °C, 50 mM potassium phosphate pH 7.5, 150 mM NaCl
[5] = substrate: C=CCc1ccc(O)c(OC)c1; type: biochemical, Hyphococcus luteus; settings: 100 μM DCPIP as acceptor, 25 °C, 50 mM potassium phosphate pH 7.5, 150 mM NaCl

| Protein | Km [2] | kcat [2] | kcat/Km [2] | other results |
| --- | --- | --- | --- | --- |
| EUGO (eugenol oxidase from Rhodococcus jostii RHA1) (Rhodococcus jostii RHA1) (protein, covalent FAD on H390) MTRTLPPGVSDERFDAALQRFRDVVGDKWVLSTADELEAFRDPYPVGAAEANLPSAVVSPESTEQVQDIVRIANEYGIPLSPVSTGKNNGYGGAAPRLSGSVIVKTGERMNRILEVNEKYGYALLEPGVTYFDLYEYLQSHDSGLMLDCPDLGWGSVVGNTLDRGVGYTPYGDHFMWQTGLEVVLPQGEVMRTGMGALPGSDAWQLFPYGFGPFPDGMFTQSNLGIVTKMGIALMQRPPASQSFLITFDKEEDLEQIVDIMLPLRINMAPLQNVPVLRNIFMDAAAVSKRTEWFDGDGPMPAEAIERMKKDLDLGFWNFYGTLYGPPPLIEMYYGMIKEAFGKIPGARFFTHEERDDRGGHVLQDRHKINNGIPSLDELQLLDWVPNGGHIGFSPVSAPDGREAMKQFEMVRNRANEYNKDYAAQFIIGLREMHHVCLFIYDTAIPEAREEILQMTKVLVREAAEAGYGEYRTHNALMDDVMATFNWGDGALLKFHEKIKDALDPNGIIAPGKSGIWSQRFRGQNL |  |  |  | Km [1]: 204.4 ± 28.9 µM; kcat [1]: 9.68 ± 0.43 s⁻¹; kcat/Km [1]: 47400 M⁻¹ s⁻¹ |
| VAD (vanillyl-alcohol dehydrogenase from Marinicaulis flavus) (Hyphococcus luteus; P151I) (protein, SUMO tag cleaved for crystals; covalent FAD on H387; dimer) MAAPLPEGVSAEAMSSALDRFARIVGADWVFTEDKITPYEDPYTISNDETEHRPYAAVAPASTEEVQEIVRVANEFGVPLWPVSRGKNFAYGGAAPVMSGTVVLDMNRMNRILEVNEEFGYALVEPGVSYFELYDYIQEKGLKLWIDVPDIGWGSVVGNALDHGIGYTPYGDHFAMQCGMEVVLPNGEVVRTGMGAMPGNNTWQLFKYGYGPYVDGIFSQSNFGVVTKMGIWLMPEPAGYRPYLITFENEDDIETVTERLRPLKVAGVIQNGATVRSLVLDAAITRTKSQYYDGDGPIPPSVAKTMMADLDLGMWNFCGALYGPPPVMDTLWTAIRDSFADIPGVKFYFPEDRRHKVDLLLHRAETMKGVPKLTEFNFLNWDGGGGHVGFSPVSPITGKDAIKQYNMVSSRVREYGFDYMGLLAIGWRDLHHVTVIVYDKTDPDERKKLDELFNILVDEAAAEGYGEYRTHIRYMDRIAKTYSWNDNALWKMHETIKDALDPNGILAPGKSGIWGKNRRKA | 37.5 ± 9.2 µM | 0.73 ± 0.04 s⁻¹ | 19000 M⁻¹ s⁻¹ |  |
| VAD (vanillyl-alcohol dehydrogenase from Marinicaulis flavus) (Hyphococcus luteus; P151G) (protein, SUMO tag cleaved for crystals; covalent FAD on H387; dimer) MAAPLPEGVSAEAMSSALDRFARIVGADWVFTEDKITPYEDPYTISNDETEHRPYAAVAPASTEEVQEIVRVANEFGVPLWPVSRGKNFAYGGAAPVMSGTVVLDMNRMNRILEVNEEFGYALVEPGVSYFELYDYIQEKGLKLWIDVPDGGWGSVVGNALDHGIGYTPYGDHFAMQCGMEVVLPNGEVVRTGMGAMPGNNTWQLFKYGYGPYVDGIFSQSNFGVVTKMGIWLMPEPAGYRPYLITFENEDDIETVTERLRPLKVAGVIQNGATVRSLVLDAAITRTKSQYYDGDGPIPPSVAKTMMADLDLGMWNFCGALYGPPPVMDTLWTAIRDSFADIPGVKFYFPEDRRHKVDLLLHRAETMKGVPKLTEFNFLNWDGGGGHVGFSPVSPITGKDAIKQYNMVSSRVREYGFDYMGLLAIGWRDLHHVTVIVYDKTDPDERKKLDELFNILVDEAAAEGYGEYRTHIRYMDRIAKTYSWNDNALWKMHETIKDALDPNGILAPGKSGIWGKNRRKA | 316.5 ± 39.7 µM | 1.49 ± 0.07 s⁻¹ | 5000 M⁻¹ s⁻¹ |  |
| VAD (vanillyl-alcohol dehydrogenase from Marinicaulis flavus) (Hyphococcus luteus) (protein, SUMO tag cleaved for crystals; covalent FAD on H387; dimer) MAAPLPEGVSAEAMSSALDRFARIVGADWVFTEDKITPYEDPYTISNDETEHRPYAAVAPASTEEVQEIVRVANEFGVPLWPVSRGKNFAYGGAAPVMSGTVVLDMNRMNRILEVNEEFGYALVEPGVSYFELYDYIQEKGLKLWIDVPDPGWGSVVGNALDHGIGYTPYGDHFAMQCGMEVVLPNGEVVRTGMGAMPGNNTWQLFKYGYGPYVDGIFSQSNFGVVTKMGIWLMPEPAGYRPYLITFENEDDIETVTERLRPLKVAGVIQNGATVRSLVLDAAITRTKSQYYDGDGPIPPSVAKTMMADLDLGMWNFCGALYGPPPVMDTLWTAIRDSFADIPGVKFYFPEDRRHKVDLLLHRAETMKGVPKLTEFNFLNWDGGGGHVGFSPVSPITGKDAIKQYNMVSSRVREYGFDYMGLLAIGWRDLHHVTVIVYDKTDPDERKKLDELFNILVDEAAAEGYGEYRTHIRYMDRIAKTYSWNDNALWKMHETIKDALDPNGILAPGKSGIWGKNRRKA | 74.2 ± 12.4 µM | 0.44 ± 0.02 s⁻¹ | 6000 M⁻¹ s⁻¹ | Km [3]: 208 ± 9 µM; kcat [3]: 0.25 ± 0.01 s⁻¹; kcat/Km [3]: 1200 M⁻¹ s⁻¹; Km [4]: 330 ± 40 µM; kcat [4]: 0.06 ± 0.003 s⁻¹; kcat/Km [4]: 200 M⁻¹ s⁻¹; Km [5]: 51.2 ± 13.1 µM; kcat [5]: 0.81 ± 0.06 s⁻¹; kcat/Km [5]: 16000 M⁻¹ s⁻¹ |
| VAD (vanillyl-alcohol dehydrogenase from Marinicaulis flavus) (Hyphococcus luteus; P151N) (protein, SUMO tag cleaved for crystals; covalent FAD on H387; dimer) MAAPLPEGVSAEAMSSALDRFARIVGADWVFTEDKITPYEDPYTISNDETEHRPYAAVAPASTEEVQEIVRVANEFGVPLWPVSRGKNFAYGGAAPVMSGTVVLDMNRMNRILEVNEEFGYALVEPGVSYFELYDYIQEKGLKLWIDVPDNGWGSVVGNALDHGIGYTPYGDHFAMQCGMEVVLPNGEVVRTGMGAMPGNNTWQLFKYGYGPYVDGIFSQSNFGVVTKMGIWLMPEPAGYRPYLITFENEDDIETVTERLRPLKVAGVIQNGATVRSLVLDAAITRTKSQYYDGDGPIPPSVAKTMMADLDLGMWNFCGALYGPPPVMDTLWTAIRDSFADIPGVKFYFPEDRRHKVDLLLHRAETMKGVPKLTEFNFLNWDGGGGHVGFSPVSPITGKDAIKQYNMVSSRVREYGFDYMGLLAIGWRDLHHVTVIVYDKTDPDERKKLDELFNILVDEAAAEGYGEYRTHIRYMDRIAKTYSWNDNALWKMHETIKDALDPNGILAPGKSGIWGKNRRKA | 151 ± 24 µM | 0.14 ± 0.07 s⁻¹ | 1000 M⁻¹ s⁻¹ |  |
| VAD (vanillyl-alcohol dehydrogenase from Marinicaulis flavus) (Hyphococcus luteus; P151V) (protein, SUMO tag cleaved for crystals; covalent FAD on H387; dimer) MAAPLPEGVSAEAMSSALDRFARIVGADWVFTEDKITPYEDPYTISNDETEHRPYAAVAPASTEEVQEIVRVANEFGVPLWPVSRGKNFAYGGAAPVMSGTVVLDMNRMNRILEVNEEFGYALVEPGVSYFELYDYIQEKGLKLWIDVPDVGWGSVVGNALDHGIGYTPYGDHFAMQCGMEVVLPNGEVVRTGMGAMPGNNTWQLFKYGYGPYVDGIFSQSNFGVVTKMGIWLMPEPAGYRPYLITFENEDDIETVTERLRPLKVAGVIQNGATVRSLVLDAAITRTKSQYYDGDGPIPPSVAKTMMADLDLGMWNFCGALYGPPPVMDTLWTAIRDSFADIPGVKFYFPEDRRHKVDLLLHRAETMKGVPKLTEFNFLNWDGGGGHVGFSPVSPITGKDAIKQYNMVSSRVREYGFDYMGLLAIGWRDLHHVTVIVYDKTDPDERKKLDELFNILVDEAAAEGYGEYRTHIRYMDRIAKTYSWNDNALWKMHETIKDALDPNGILAPGKSGIWGKNRRKA | 42.2 ± 6.6 µM | 0.90 ± 0.04 s⁻¹ | 21000 M⁻¹ s⁻¹ |  |
| VAD (vanillyl-alcohol dehydrogenase from Marinicaulis flavus) (Hyphococcus luteus; P151T) (protein, SUMO tag cleaved for crystals; covalent FAD on H387; dimer) MAAPLPEGVSAEAMSSALDRFARIVGADWVFTEDKITPYEDPYTISNDETEHRPYAAVAPASTEEVQEIVRVANEFGVPLWPVSRGKNFAYGGAAPVMSGTVVLDMNRMNRILEVNEEFGYALVEPGVSYFELYDYIQEKGLKLWIDVPDTGWGSVVGNALDHGIGYTPYGDHFAMQCGMEVVLPNGEVVRTGMGAMPGNNTWQLFKYGYGPYVDGIFSQSNFGVVTKMGIWLMPEPAGYRPYLITFENEDDIETVTERLRPLKVAGVIQNGATVRSLVLDAAITRTKSQYYDGDGPIPPSVAKTMMADLDLGMWNFCGALYGPPPVMDTLWTAIRDSFADIPGVKFYFPEDRRHKVDLLLHRAETMKGVPKLTEFNFLNWDGGGGHVGFSPVSPITGKDAIKQYNMVSSRVREYGFDYMGLLAIGWRDLHHVTVIVYDKTDPDERKKLDELFNILVDEAAAEGYGEYRTHIRYMDRIAKTYSWNDNALWKMHETIKDALDPNGILAPGKSGIWGKNRRKA | 17.6 ± 5.5 µM | 0.48 ± 0.03 s⁻¹ | 27000 M⁻¹ s⁻¹ |  |
| VAD (vanillyl-alcohol dehydrogenase from Marinicaulis flavus) (Hyphococcus luteus; P151L) (protein, SUMO tag cleaved for crystals; covalent FAD on H387; dimer) MAAPLPEGVSAEAMSSALDRFARIVGADWVFTEDKITPYEDPYTISNDETEHRPYAAVAPASTEEVQEIVRVANEFGVPLWPVSRGKNFAYGGAAPVMSGTVVLDMNRMNRILEVNEEFGYALVEPGVSYFELYDYIQEKGLKLWIDVPDLGWGSVVGNALDHGIGYTPYGDHFAMQCGMEVVLPNGEVVRTGMGAMPGNNTWQLFKYGYGPYVDGIFSQSNFGVVTKMGIWLMPEPAGYRPYLITFENEDDIETVTERLRPLKVAGVIQNGATVRSLVLDAAITRTKSQYYDGDGPIPPSVAKTMMADLDLGMWNFCGALYGPPPVMDTLWTAIRDSFADIPGVKFYFPEDRRHKVDLLLHRAETMKGVPKLTEFNFLNWDGGGGHVGFSPVSPITGKDAIKQYNMVSSRVREYGFDYMGLLAIGWRDLHHVTVIVYDKTDPDERKKLDELFNILVDEAAAEGYGEYRTHIRYMDRIAKTYSWNDNALWKMHETIKDALDPNGILAPGKSGIWGKNRRKA | 72.4 ± 6.3 µM | 0.76 ± 0.02 s⁻¹ | 10500 M⁻¹ s⁻¹ |  |
